First the molecules themselves.
B2: CK2α kinase (enzyme)
chain: SGPVPSRARVYTDVNTHRPREYWDYESHVVEWGNQDDYQLVRKLGRGKYSEVFEAINITNNEKVVVKILKPVKKKKIKREIKILENLRGGPNIITLADIVKDPVSRTPALVFEHVNNTDFKQLYQTLTDYDIRFYMYEILKALDYCHSMGIMHRDVKPHNVMIDHEHRKLRLIDWGLAEFYHPGQEYNVRVASRYFKGPELLVDYQMYDYSLDMWSLGCMLASMIFRKEPFFHGHDNYDQLVRIAKVLGTEDLYDYIDKYNIELDPRFNDILGRHSRKRWERFVHSENQHLVSPEALDFLDKLLRYDHQSRLTAREAMEHPYFYTVVK

Common to all, as to experiment: ITC
Background: In ITC the heat of successive injections is recorded.

The target in test [1] is T1, cRAD-TPX2_((7–43)) display protein (Pyrococcus furiosus | human, UniProt O74036 108-287; O74036 302-349, K144A).
Test [2] concerns the target T1, cRAD-TPX2_((7–43)) display protein. This is another data set of the same source.
The target of test [3] is cRAD-CK2β_((186–200)) display protein (Pyrococcus furiosus | human, UniProt O74036 108-287; P67870 186-200; O74036 302-349, K144A).
The target in test [4] is T2, Aurora A_(D274N) kinase domain (human, UniProt O14965 122-403, D274N).
T2 sequence: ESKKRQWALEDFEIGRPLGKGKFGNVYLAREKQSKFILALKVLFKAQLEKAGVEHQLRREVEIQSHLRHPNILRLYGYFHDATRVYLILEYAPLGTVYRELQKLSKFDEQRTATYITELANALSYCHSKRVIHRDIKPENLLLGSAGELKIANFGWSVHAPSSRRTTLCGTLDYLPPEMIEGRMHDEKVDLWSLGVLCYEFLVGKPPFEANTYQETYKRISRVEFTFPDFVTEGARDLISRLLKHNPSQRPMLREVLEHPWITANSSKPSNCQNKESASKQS

For the test “CK2α kinase”, the target named is B2.

Consider 4 molecules from publication PMC5897841 (2017).

What is called Kd is the constant that tells how readily two partners part at equilibrium. Higher therefore signals weaker binding.

B1: Aurora A wild-type kinase domain (untagged) (domain or fragment)
chain: FEIGRPLGKGKFGNVYLAREKQSKFILALKVLFKAQLEKAGVEHQLRREVEIQSHLRHPNILRLYGYFHDATRVYLILEYAPLGTVYRELQKLSKFDEQRTATYITELANALSYCHSKRVIHRDIKPENLLLGSAGELKIADFGWSVHAPSSRRTTLCGTLDYLPPEMIEGRMHDEKVDLWSLGVLCYEFLVGKPPFEANTYQETYKRISRVEFTFPDFVTEGARDLISRLLKHNPSQRPMLREVLEHPWI
As for B1, the Ka in test [1] amounted to 6.27e+07 M⁻¹. The dissociation constant Kd in test [2] worked out at 0.0159 µM.

In turn, B2 gave a Ka in test [3] of 7.13e+06 M⁻¹.

B3: linear TPX2_((7–43)) peptide (peptide)
peptide: LSYSYDAPSDFINFSSLDDEGDTQNIDSWFEEKANLENLKGGGCQM
B3 gave a Ka in test [4] of 8.71e+06 M⁻¹.

B4: synthetic linear CK2β_((186–200)) peptide (peptide)
chain: RLYGFKIHPMAYQLQ
B4 had a Ka in the test with CK2α kinase of 7.27e+06 M⁻¹.
